In article PMC7820290:

Target: SARS-CoV-2 nucleocapsid (N), wild type (SARS-CoV-2, UniProt P0DTC9 1-419)
Test: co-condensation microscopy; 10 uM N, maximal at 5 uM RNA, reentrant
Conditions: protein: recombinant; tags: N-terminal His6 cleaved by TEV; Cys inserted before residue 1 in the dye-labelled fraction; chain copies: 2; label: 6-FAM (fluorescein)

AAGCAGCUAAGAGCGAA (ssRNA) [17-mer RNA]
binding result: binds
